Substrate: N[C@@H](CCC(=O)N[C@@H](CS)C(=O)NCC(=O)O)C(=O)O
Assay: purified protein
Conditions: G-site

B1: MmGSTP1-1 (Mus musculus) (protein)
chain: PPYTIVYFPVRGRCEAMRMLLADQGQSWKEEVVTIDTWMQGLLKPTCLYGQLPKFEDGDLTLYQSNAILRHLGRSLGLYGKNQREAAQMDMVNDGVEDLRGKYVTLIYTNYENGKNDYVKALPGHLKPFETLLSQNQGGKAFIVGDQISFADYNLLDLLLIHQVLAPGCLDNFPLLSAYVARLSARPKIKAFLSSPEHVNRPINGNGKQ
With B1 the Km was 220 ± 10 µM.

Reference: article PMC10136361, “Inhibition Analysis and High-Resolution Crystal Structure of Mus musculus Glutathione Transferase P1-1” (Biomolecules, 2023)
